Results reported in patent US5786145A, “Oligonucleotide competitors for binding of HIV RRE to REV protein and assays for screening inhibitors of this binding” (Medical Research Council, priority 1995, dated 1998).
Changes are numbered by the printed parent chain. Entries after “also recorded” stand apart in the source; their conditions may differ.

What was measured:
rev protein [1] = assay: Saturation filter binding of rev to labelled RNA transcripts; design: species or system HIV-1; settings: for % RNA bound (10 nM rev): Table I, 50 mM KCl; for rev binding, result in words: saturation filter binding, 0 to 10 nM rev; for Kd: saturation filter binding of T7 transcripts, read-out: Kd for rev binding
Protocol: Rev protein was expressed and purified as described (33) or further purified by chromatography on Heparin-Sepharose. Rev was applied to Heparin columns in a buffer containing 200 mM NaCl/50mM Tris-HCl pH8.0/1 mM DTT/0.1 mM EDTA 0.1% Triton X-100 and eluted in buffer containing 2M NaCl. After gel filtration on Superose 6 (prep grade) columns equilibrated with 200 mM NaCl/50 mM Tris-HCl pH8.0/1 mM DTT/0.1 mM EDTA, the rev protein appeared homogeneous on SDS-polyacrylamide gels and free of RNA contaminants. Rev concentrations were determined by amino acid analysis of the purified protein.
DNA inserts containing RRE-related sequences were cloned between the EcoRI (5') and HindIII (3') sites of pGEM 1, either by cloning PCR products or by cloning annealed pairs of synthetic oligonucleotides. RNA transcripts for binding experiments were prepared by transcription of HindIII cut plasmids using T7 RNA polymerase and purified by gel electrophoresis. These transcripts carry a 5' extension of 15 nucleotides contributed by the vector and an extra A residue at the 3' end from the HindIII site, as described above.
For filter binding assays, each reaction mixture contained 20 pg of uniformly labelled RNA probe (approximately 500 cpm/pg RNA), […] sonicated salmon sperm DNA, […] yeast tRNA, 40 units RNasin (Promega) in […] TK buffer (43 mM Tris-HCl pH8.0, 50 mM KCl). Incubation was at 4° C. for 15 minutes in the presence of 0 to 10 nM purified rev protein. To measure binding, each reaction mixture was applied under gentle vacuum to a 0.45 um Millipore filter which had been pre-wetted with TK buffer. The filters were washed with […] TK buffer, dried, and radioactivity counted by liquid scintillation.
Filter binding assays contained 20 pg uniformly labelled RNA probe (500 dpm per pg RNA), 1 μg salmon sperm DNA, 0.45 μg yeast tRNA and 40 units RNasin (Promega) in 500 μl buffer containing 43 mM Tris-HCl pH 8.0, 50 mM KCl. Mutations in the purine-rich "bubble" sequence (numbered as shown in FIG. 2) were introduced into the R33 stem-loop structure (FIG. 3d) by site-directed mutagenesis.

rev protein [2] = assay: Competition filter binding against 32P-labelled R7 (FIGS. 13, 17); design: species or system HIV-1; settings: 1.5 nM labelled R7, 24 nM rev, 0-60 nM competitor
Protocol: In these experiments, uniformly ^32 P-labelled R7 (1.5 nM) was competed against 0-60 nM unlabelled competitor RNA in the presence of 24 nM rev protein.
The mixtures for competition binding (0.5 ml) included 1.5 nM ^32 P-labelled R7 (ca. 20,000 cpm), 24 nM rev protein, 1.5 ug/ml calf thymus DNA, 0.67 ug/ml yeast rRNA, varying concentrations (0-60 nM) of unlabelled competitor RNA and 80 units/ml RNasin in TK buffer (50 mM Tris-HCl (pH7.9) and 20 mM KCl). Binding was allowed to take place for more than 15 min on ice, and each mixture was passed through a Millipore GS filter (a 2.5 cm disk with a pore size of 0.22 um) prewashed twice with 0.6 ml of ice-cold TK buffer. The filter was washed with 0.6 ml of cold TK buffer and dried. The radioactivity retained on the filter was counted by liquid scintillation, and the results were plotted on a graph (FIG. 13).

HIV-1 Rev [3] = biological target: T1, HIV-1 Rev (Human immunodeficiency virus 1, UniProt P04618 P04618:1-116); assay: filter; non-specific binding only; settings: tags: none stated, heparin-Sepharose and Superose 6 purified, chain copies: oligomer (tetramer likely; about 4 per RBC6, 6-8 per full-length RRE at 50 mM KCl) stated, label: 32P uniform
HIV-1 Rev [4] = biological target: T1, HIV-1 Rev; assay: competition; D1/2 vs labelled RRE RNA, 17 nM rev; settings: tags: none stated; heparin-Sepharose and Superose 6 purified; chain copies: oligomer (tetramer likely; about 4 per RBC6, 6-8 per full-length RRE at 50 mM KCl) stated; label: 32P uniform; stem-loop with altered bubble

Molecule: R37 (GGGAGACCGGAAUUCUAAACGCAGUGUCAUUGACGCUGCGGUAUAGAAUUCCGGCA; chemistry not given here)
- % RNA bound (10 nM rev) (rev protein [1]): 5%
- rev binding, result in words (rev protein [1]): abolished specific rev binding

Molecule: TWJ-U: three annealed synthetic oligoribonucleotides forming three-way junction; authentic HIV-1ARV2 sequence with G:U base pair (chain 1 GCACUAUGGGCGCAGC; chain 2 GCUGCGGUACAGGCCAGA; chain 3 UCUGGUAUAGUGC; RNA, backbone not given here)
- competition for rev binding against labelled R7, result in words (rev protein [2]): compete for rev binding with the same affinity

Molecule: RBC2-6X: only two oligonucleotides annealed, containing all sequences from the bubble region (chain 1 GCACUAUGGGCGCAGC; chain 2 GCUGCGGUACAGGCCAGA; chemistry not given here)
- competition for rev binding against labelled R7, result in words (rev protein [2]): not sufficiently stable to form an effective rev binding site
- competition for rev binding against labelled R7, result in words (rev protein [2]; listed as RBC2,6X): unable to compete effectively

Molecule: R19: transcript containing RRE sequences 33 to 66 (GGGAGACCGGAAUUCUGGGCGCAGUGUCAUUGACGCUGACGGUACAGGCA; unmodified RNA)
- Kd (rev protein [1]): 1 to 3 nM

Molecule: TWJ-C: three annealed synthetic oligoribonucleotides forming bubble stabilized by three-way junction; U85 replaced by C (chain 1 GCACUAUGGGCGCAGC; chain 2 GCUGCGGUACAGGCCAGA; chain 3 UCUGGCAUAGUGC; RNA, backbone not given here)
- competition for rev binding against labelled R7, result in words (rev protein [2]): compete for rev binding with the same affinity

Molecule: RBC5: chemically synthesized RNA duplex, purine-rich bubble with 5 base pairs on each side (chain 1 GUGUGGGCGCAG; chain 2 CUGCGGUACACA; RNA, backbone not given here)
- competition for rev binding against labelled R7, result in words (rev protein [2]): less

Molecule: R30: base pairing in the upper stem structure altered to give the anti-sense sequence (GGGAGACCGGAAUUCUGGGCGCAGCGUCAUUGACACUGCGGUACAGGCA; chemistry not given here)
- rev binding, result in words (rev protein [1]): normal rev binding activity

Molecule: R29: residues altered in the apex of the loop to give the anti-sense sequence (GGGAGACCGGAAUUCUGGGCGCAGUGUCAAUGACGCUGACGGUACAGGCA; chemistry not given here)
- rev binding, result in words (rev protein [1]): normal rev binding activity

Molecule: R22: residue A56 is deleted from R20 (GGGAGACCGGAAUUCUGGGCGCAGUGUCAUUGACGCUGCGGUACAGGCA; chemistry not given here)
- Kd (rev protein [1]): 1 to 3 nM

Molecule: RBC4: chemically synthesized RNA duplex, purine-rich bubble with 4 base pairs in the stem on each side (chain 1 UGUGGGCGCA; chain 2 UGCGGUACAC; RNA, backbone not given here)
- competition for rev binding against labelled R7, result in words (rev protein [2]): no competitive binding abilities

Molecule: R36 (GGGAGACCGGAAUUCUGGGCGCAGUGUCAUUGACGCUGCGCAGAAUUCCGGCA; chemistry not given here)
- % RNA bound (10 nM rev) (rev protein [1]): 4%
- rev binding, result in words (rev protein [1]): loss of rev binding

Molecule: R38: stem-loop structure C39 to A56 replaced by the stable loop sequence CUUCGG (GGGAGACCGGAAUUCUGGGCGCUUCGGCGGUACAGA; chemistry not given here)
- Kd (rev protein [1]): 1 to 3 nM

B1: 26-92: RRE fragment 26-92 T7 transcript (nucleic acid)
chain: GGGAGACCGGAAUUCAGCACUAUGGGCGCAGUGUCAUUGACGCUGACGGUACAGGCCAGACAAUUAUUGUCUGGUAUAGUGCA
modifications: unmodified RNA
notes: RRE fragment 26-92 T7 transcript
- rev binding, result in words (rev protein [1]): same affinity as the full-length RRE sequence; also recorded: Identical binding behaviour

B2: R58 (ssRNA)
RNA: GGGAGACCGGAAUUCUGGGCGCAGUGUCAUUGACGCUGCGAUACAGAAUUCCGGCA
modifications: [none]
- binding signal (HIV-1 Rev [3]): 6 % RNA bound at 10 nM rev

B3: R40 (ssRNA)
RNA: B2 RNA with G17C, A41G, C44G
modifications: [none]
- binding signal (HIV-1 Rev [3]): 3 % RNA bound at 10 nM rev

B4: R56 (ssRNA)
RNA: B2 RNA with C20U, G40A, A41G
modifications: [none]
- binding signal (HIV-1 Rev [3]): 6 % RNA bound at 10 nM rev

B5: R41 (ssRNA)
RNA: B2 RNA with C20G, G40C, A41G
modifications: [none]
- binding signal (HIV-1 Rev [3]): 2 % RNA bound at 10 nM rev

B6: R53 (ssRNA)
RNA: B2 RNA with A41G, A43G
modifications: [none]
- binding signal (HIV-1 Rev [3]): 5 % RNA bound at 10 nM rev

B7: R47 (ssRNA)
RNA: B2 RNA with G18A, A41G
modifications: [none]
- binding signal (HIV-1 Rev [3]): 6 % RNA bound at 10 nM rev

B8: R37 (ssRNA)
RNA: B2 RNA with G17A, G18A, G19A, A41G, C44U
- binding signal (HIV-1 Rev [3]; stem-loop with altered bubble): 5 % RNA bound at 10 nM rev

B9: 1-96: RRE fragment 1-96 T7 transcript (nucleic acid)
chain: GGGAGACCGGAAUUCCCUUGGGUUCUUGGGAGCAGCAGGAAGCACUAUGGGCGCAGUGUCAUUGACGCUGACGGUACAGGCCAGACAAUUAUUGUCUGGUAUAGUGCAACA
modifications: unmodified RNA
notes: RRE fragment 1-96 T7 transcript
- rev binding, result in words (rev protein [1]): same affinity as the full-length RRE sequence

B10: R49 (ssRNA)
RNA: GGGAGACCGGAAUUCUGGGCGCAGUGUCAUUGACGCUGCGUACAGAAUUCCGGCA
modifications: [none]
- binding signal (HIV-1 Rev [3]): 2 % RNA bound at 10 nM rev

B11: R45 (ssRNA)
RNA: B10 RNA with U41G
modifications: [none]
- binding signal (HIV-1 Rev [3]): 6 % RNA bound at 10 nM rev

B12: R46 (ssRNA)
RNA: B10 RNA with U41G, A42U
modifications: [none]
- binding signal (HIV-1 Rev [3]): 1 % RNA bound at 10 nM rev

B13: R36 (dG59-A61) (ssRNA)
RNA: GGGAGACCGGAAUUCUGGGCGCAGUGUCAUUGACGCUGCGCAGAAUUCCGGCA
- binding signal (HIV-1 Rev [3]; stem-loop with G,G bulge): 4 % RNA bound at 10 nM rev

B14: R34 (dG35-G36) (ssRNA)
RNA: GGGAGACCGGAAUUCUGCGCAGUGUCAUUGACGCUGCGGUACAGAAUUCCGGC
- binding signal (HIV-1 Rev [3]; stem-loop with altered bubble): 3 % RNA bound at 10 nM rev
- IC50 (HIV-1 Rev [4]): > 250 nM

B15: 26-72: RRE fragment 26-72 T7 transcript (nucleic acid)
chain: GGGAGACCGGAAUUCAGCACUAGGGCGCAGUGUCAUUGACGCUGAGGGUACAGGCCAGACAAUUAUA
modifications: unmodified RNA
notes: RRE fragment 26-72 T7 transcript
- rev binding, result in words (rev protein [1]): does not bind rev
